In patent US20190071490A1 (BETH ISRAEL DEACONESS MEDICAL CENTER, published 2019):
Numbering of substitutions follows the chain as printed. Ends that are not written are not given here.

Experiments:
human α-CGRP 1-37 (WT) [1] = target: T1, human α-CGRP 1-37 (WT) (human, C-terminal amide; N-terminal biotin when captured on the SA chip; 125I-labelled in the radioligand assay); assay: Biacore, 37°C, Fab over CGRP on SA chip
T1 construct: also called α-human
T1 peptide: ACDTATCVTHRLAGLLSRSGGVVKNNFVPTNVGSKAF
Summary of the method: (§1)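 Fab analyte flowed over N-biotinylated CGRP captured at low density on a streptavidin chip in HBS-EP (pH 7.4), 1-min injections at 100 μL/min, at least 10 min dissociation.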

rat α-CGRP (1-37) [2] = target: T2, rat α-CGRP (1-37) (rat, C-terminal amide; N-terminal biotin when captured on the SA chip); assay: Biacore, 37°C, Fab over CGRP on SA chip
T2 construct: also called rat α (1-37); α-rat
T2 peptide: T1 peptide with A1S, D3N, N25D, K35E
Summary of the method: as §1

human α-CGRP 1-37 (WT) [3] = target: T1, human α-CGRP 1-37 (WT); assay: Biacore, 37°C, high-resolution two-part experiment
Protocol: (§2) Biacore assay for affinity determination. […] All Biacore assays were conducted in HBS-EP running buffer (10 mM HEPES pH 7.4, 150 mM NaCl, 3 mM EDTA, 0.005% v/v polysorbate P20). CGRP surfaces were prepared by diluting the N-biotinylated CGRP to a concentration of less than 0.001 mg/mL into HBS-EP buffer and injecting it across the SA sensor chip using variable contact times. […] Samples were typically injected for 1 minute at 100 μL/min and dissociation times of at least 10 minutes were allowed. […] An entire titration series (typically generated in duplicate) was fit globally to a 1:1 Langmuir binding model using the BIAevaluation program. This returned a unique pair of association and dissociation kinetic rate constants (respectively, kₒₙ and koff) for each binding interaction, whose ratio gave the equilibrium dissociation constant (KD=koff/kₒₙ).
(§3) High-resolution analysis of binding interactions with extremely slow off rates. […] The protocol described above was used with the following modifications.

[4] = target: T3, human α-CGRP F37A (25-37) (human, not fully specified); assay: Biacore, 37°C, G1 Fab titrated over N-biotinylated peptide on chip
T3 construct: the entry already carries F37A
T3 peptide: NNFVPTNVGSKAA-NH2
Protocol: (§4) All Biacore assays were conducted in HBS-EP running buffer (10 mM HEPES pH 7.4, 150 mM NaCl, 3 mM EDTA, 0.005% v/v polysorbate P20). CGRP surfaces were prepared by diluting the N-biotinylated CGRP to a concentration of less than 0.001 mg/mL into HBS-EP buffer and injecting it across the SA sensor chip using variable contact times. […] Samples were typically injected for 1 minute at 100 μL/min and dissociation times of at least 10 minutes were allowed. […] An entire titration series (typically generated in duplicate) was fit globally to a 1:1 Langmuir binding model using the BIAevaluation program. This returned a unique pair of association and dissociation kinetic rate constants (respectively, kₒₙ and koff) for each binding interaction, whose ratio gave the equilibrium dissociation constant (KD=koff/kₒₙ).

human α-CGRP 1-37 (WT) [5] = target: T1, human α-CGRP 1-37 (WT); assay: as above
Protocol: as §4

[6] = target: T4, human α-CGRP fragment 19-37 (human, not fully specified); assay: as above
T4 peptide: SGGVVKNNFVPTNVGSKAF-NH2
Protocol: as §4

[7] = target: T5, human α-CGRP V32A (25-37) (human, not fully specified); assay: as above
T5 construct: the entry already carries V32A
T5 peptide: NNFVPTNAGSKAF-NH2
Protocol: as §4

[8] = target: T6, human α-CGRP S34A (25-37) (human, not fully specified); assay: as above
T6 construct: the entry already carries S34A
T6 peptide: NNFVPTNVGAKAF-NH2
Protocol: as §4

human β-CGRP (1-37) = target: T7, human β-CGRP (1-37) (human, C-terminal amide; N-terminal biotin when captured on the SA chip); assay: Biacore, 37°C, Fab over N-biotinylated CGRP on SA chip, 20-min dissociation
T7 construct: also called human β (1-37)
T7 peptide: T1 peptide with D3N, V22M, N25S
Protocol: as §2

rat β-CGRP (1-37) = target: T8, rat β-CGRP (1-37) (rat, C-terminal amide; N-terminal biotin when captured on the SA chip); assay: as above
T8 construct: also called rat β (1-37)
T8 peptide: T1 peptide with A1S, D3N, N25D
Protocol: as §2

human α-CGRP 1-13-COOH = target: T9, human α-CGRP 1-13-COOH (human, ends and bridges not checked); assay: Biacore competition: 50 nM G1 Fab with 10 µM peptide over human α-CGRP on chip
T9 peptide: ACDTATCVTHRLA-OH

human α-CGRP 1-19-COOH = target: T10, human α-CGRP 1-19-COOH (human, ends and bridges not checked); assay: as above
T10 peptide: ACDTATCVTHRLAGLLSRS-OH

human α-CGRP 1-37 (WT) [9] = target: T1, human α-CGRP 1-37 (WT); assay: Biacore, 25°C, Fab over N-biotinylated CGRP on SA chip, high-resolution two-part experiment
Protocol: as §2, §3

rat α-CGRP (1-37) [10] = target: T2, rat α-CGRP (1-37); assay: as above
Protocol: as §2, §3

Kd (human α-CGRP 1-37 (WT) [1]): 0.063 nM
Kd (rat α-CGRP (1-37) [2]): 2.57 nM
Kd (human α-CGRP 1-37 (WT) [3]): 0.06 nM
Kd [4]: 95 nM
Kd (human α-CGRP 1-37 (WT) [5]): 0.16 nM
Kd [6]: 0.16 nM
Kd [7]: 1.71 nM
Kd [8]: 3.04 nM
Kd (human β-CGRP (1-37)): 0.155 nM
Kd (rat β-CGRP (1-37)): 0.152 nM
binding result (human α-CGRP 1-13-COOH): no binding (tested: 10 µM peptide)
binding result (human α-CGRP 1-19-COOH): no binding (tested: 10 µM peptide)
Kd (human α-CGRP 1-37 (WT) [9]): 0.042 nM
Kd (rat α-CGRP (1-37) [10]): 1.22 nM
B1: antibody G1 Fab fragment (Fab, V domains shown)
VH: EVQLVESGGGLVQPGGSLRLSCAASGFTFSNYWISWVRQAPGKGLEWVAEIRSESDASATHYAEAVKGRFTISRDNAKNSLYLQMNSLRAEDTAVYYCLAYFDYGLAIQNYWGQGTLVTVSS
VL: EIVLTQSPATLSLSPGERATLSCKASKRVTTYVSWYQQKPGQAPRLLIYGASNRYLGIPARFSGSGSGTDFTLTISSLEPEDFAVYYCSQSYNYPYTFGQGTKLEIK
